The source of these data is publication PMC8484739 (The Journal of Biological Chemistry, 2021).

Changes are numbered by the printed parent chain. Names may count otherwise. Read-outs that look alike come from different tables or passages of the source.

In data set [1] the target is wild type CD70-His-Avi (human) (UniProt P32970). The data set can be described thus: SPR. Background: Surface plasmon resonance follows binding to a sensor surface in real time, without labels.
Data set [2] has the same target. The data set can be described thus: SPR. This is another data set of the same source.
Data set [3] has the same target. The data set is described as follows: SPR. This is another data set of the same source.
Data set [4] addresses human CD70 S137K, His-Avi tagged, purified (human) (UniProt P32970). The data set can be described thus: SPR.
The next data set concerns the target CD70-S146A (human) (UniProt P32970). The data set can be described thus: SPR.
For the next data set, the target named is CD70-A80F (human) (UniProt P32970). The data set is described as follows: SPR.
For another data set, the target named is CD70-S137E (human) (UniProt P32970). The data set can be described thus: SPR.
The target in a further data set is CD70-H148D (human) (UniProt P32970). The data set can be described thus: SPR.
Another data set concerns the target CD70-A80R (human) (UniProt P32970). The data set can be described thus: SPR.
The next data set addresses CD70-Q61A (human) (UniProt P32970). The data set is described as follows: SPR.
Another data set has as its target CD70-S137K (human) (UniProt P32970). The data set can be described thus: SPR.
The next data set addresses CD70-S137A (human) (UniProt P32970). The data set is described as follows: SPR.
The next data set deals with CD70-H148A (human) (UniProt P32970). The data set can be described thus: SPR.
The next data set deals with CD70-H148E (human) (UniProt P32970). The data set is described as follows: SPR.
The target in the next data set is T1, wild type CD70-His-Avi (human, UniProt P32970 45-193).
T1 sequence (looked up): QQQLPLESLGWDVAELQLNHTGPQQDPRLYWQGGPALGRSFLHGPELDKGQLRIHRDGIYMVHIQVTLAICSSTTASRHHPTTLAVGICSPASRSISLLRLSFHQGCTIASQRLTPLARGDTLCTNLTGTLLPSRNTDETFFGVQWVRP
The data set is described as follows: SPR.

The data set “SEC” concerns the molecule itself. The data set is described as follows: SEC. Background: Size exclusion chromatography separates by hydrodynamic size, large species first.

By Kd is commonly meant the concentration at which binding is half-saturated. For the molecule “deglycosylated human CD27 (from UniProt P26842 23-127) (receptor)”, in data set [1], the equilibrium dissociation constant (Kd) turned out to be 118 nM and the half-life (calculated from kd) was 1.9 min.
Take “human CD27 wild-type (glycosylated) (from UniProt P26842 23-127) (receptor)”: the Kd in [2] came to 121 nM; in [3] it was 135 nM; in [1], 134 nM. The half-life (calculated from kd) in [1] was 2.67 min.

B1: human CD27 wild type, glycosylated (residues A23-S127) (receptor)
chain: APKSCPERHYWAQGKLCCQMCEPGTFLVKDCDQHRKAAQCDPCIPGVSFSPDHHTRPHCESCRHCNSGLLVRNCTITANAECACRNGWQCRDKECTECDPLPNPS
modifications: N-linked glycan (glycosylated form)
Regarding B1, in [4], the Kd worked out at 113 nM. This lies in the sub-micromolar range.

B2: human CD27 wild-type (glycosylated) (receptor)
chain: B1 chain
modifications: N-linked glycans kept (glycosylated; no Endo H digestion)
With B2, the Kd was 116 nM in the data set with CD70-S146A (human); 643 nM with CD70-A80F (human); 526 nM with CD70-S137E (human); 477 nM with CD70-H148D (human); 163 nM in the data set with CD70-A80R (human); 205 nM with CD70-Q61A (human). Also, the Kd in the data set with CD70-S137K (human) stood at 135 nM; in the data set with CD70-S137A (human), 156 nM; with CD70-H148A (human), 236 nM; in the data set with CD70-H148E (human), 380 nM.

B3: CD27-N95A (receptor, human, UniProt P26842 23-127, looked up)
chain: B1 chain with N73A
As usually defined, the koff is the rate constant with which the complex falls apart. High values mean fast dissociation, low ones slow dissociation. As usually defined, the kon is the rate constant with which the complex forms. Lower therefore signals slow association. In the data set with wild type CD70-His-Avi, B3 yielded a Kd of 100 nM, an off-rate constant (koff) of 0.00726 s⁻¹ and a kon of 72500 M⁻¹ s⁻¹.

B4: CD27-S83A (receptor, human, UniProt P26842 23-127, looked up)
chain: B1 chain with S61A
modifications: glycosylated
As for B4, in the data set with wild type CD70-His-Avi, the dissociation constant (Kd) was 254 nM, the koff is 0.00854 s⁻¹ and the on-rate (kon) amounted to 33600 M⁻¹ s⁻¹.

B5: CD27-R30A (receptor, human, UniProt P26842 23-127, looked up)
chain: B1 chain with R8A
modifications: glycosylated
In the data set with wild type CD70-His-Avi, B5 gave a Kd of 351 nM, a dissociation rate constant (koff) of 0.0047 s⁻¹ and an on-rate constant (kon) of 13400 M⁻¹ s⁻¹.

B6: CD27-K115A (receptor, human, UniProt P26842 23-127, looked up)
chain: B1 chain with K93A
modifications: glycosylated
In the data set with wild type CD70-His-Avi, B6 had an equilibrium dissociation constant (Kd) of 102 nM, a koff of 0.00351 s⁻¹ and a kon of 34500 M⁻¹ s⁻¹.

B7: glycosylated human CD70 (crystallisation construct) (ligand, UniProt P32970 45-193, looked up)
chain: T1 sequence (looked up)
modifications: N-linked glycans on N63 and N170; core fucosylation at N63
For orientation: stoichiometry N means the number of molecules, sites or subunits per partner or assembly. Turning to B7, the “stoichiometry N” value in “SEC” turned out to be 3.
